{
  "source": "paper PMC10362797",
  "about": "“Phosphorylation of USP20 on Ser334 by IRAK1 promotes IL-1β-evoked signaling in vascular smooth muscle cells and vascular inflammation” (The Journal of Biological Chemistry, 2023)",
  "binders": {"B1": {"name": "HA-tagged USP20-S334A (mouse) (enzyme, UniProt Q8C6M1 1-916, looked up)", "chain": "MGDARDLCPHLDCIGEVTKEDLLLKSKGTCQSCGVAGPNLWACLQVTCPYVGCGESFADHSSIHAQVKKHNLTVNLTTFRVWCYACEREVFLEQRLAVHLASSSARLSEQDSPPPSHPLKAVPIAVADEGESESEDDDLKPRGLTGMKNLGNSCYMNAALQALSNCPPLTQFFLECGGLVRTDKKPALCKSYQKLISEVWHKKRPSYVVPTSLSHGIKLVNPMFRGYAQQDTQEFLRCLMDQLHEELKEPMVAAVAALTDARDSDSSDTDERRDGDRSPSEDEFLSCDSSSDRGEGDGQGRGGGSSKAEMELLISDEAGRAISEKERMKDRKFAWGQQRTNSEQVDEDADVDTAMASLDEQSREAQPPSPRSTSPCQTPEPDNEAHIRSSSRPCSPVHHHHEGHSKLSSSPPRASPVRMGPSYVLKKAQVPSTGGRRRKEQSYRSVISDVFNGSVLSLVQCLTCDRVSTTVETFQDLSLPIPGKEDLAKLHSAIYQNVPAKPGACGDSYSSQGWLAFIVEYIRRFVVSCTPSWFWGPVVTLEDCLAAFFAADELKGDNMYSCERCKKLRNGVKYCKVLCLPEILCVHLKRFRHEVMYSFKVSSHVSFPLEGLDLRPFLAKECTSQVTTYDLLSVICHHGTAGSGHYIAYCQNVINGQWYEFDDQYVTEVHETVVQNVEAYVLFYRKSSEEAMRERQQVVSLAAMREPSLLRFYVSREWLNKFNTFAEPGPITNHTFLCSHGGIPPNKYHYIDDLVVILPQSVWEHLYSRFGGGPAVNHLYVCSICQVEIEALAKRRRVEIDTFIKLNKAFQAEESPAVIYCISMHWFREWEAFVKGKDSEPPGPIDNSRIAQVKGSGHIQLKQGADCGQISEETWTYLSSLYGGGPEIAIRQSVAQLPDPESLHGEQKIEAETRAL", "notes": "Mimics unphosphorylated USP20; source: mouse SMCs, transduced with recombinant adenovirus, in protein extract/lysate; not shown: HA, N-terminal, kept"}},
  "target": "T1, TRAF6 (TNFR-associated factor 6), endogenous (mouse (endogenous in mouse SMCs), UniProt P70196 1-530)",
  "T1 construct": "TRAF6, E3 ubiquitin ligase, endogenously expressed in mouse aortic smooth muscle cells; source: endogenous, mouse SMC lysate",
  "T1 sequence (looked up)": "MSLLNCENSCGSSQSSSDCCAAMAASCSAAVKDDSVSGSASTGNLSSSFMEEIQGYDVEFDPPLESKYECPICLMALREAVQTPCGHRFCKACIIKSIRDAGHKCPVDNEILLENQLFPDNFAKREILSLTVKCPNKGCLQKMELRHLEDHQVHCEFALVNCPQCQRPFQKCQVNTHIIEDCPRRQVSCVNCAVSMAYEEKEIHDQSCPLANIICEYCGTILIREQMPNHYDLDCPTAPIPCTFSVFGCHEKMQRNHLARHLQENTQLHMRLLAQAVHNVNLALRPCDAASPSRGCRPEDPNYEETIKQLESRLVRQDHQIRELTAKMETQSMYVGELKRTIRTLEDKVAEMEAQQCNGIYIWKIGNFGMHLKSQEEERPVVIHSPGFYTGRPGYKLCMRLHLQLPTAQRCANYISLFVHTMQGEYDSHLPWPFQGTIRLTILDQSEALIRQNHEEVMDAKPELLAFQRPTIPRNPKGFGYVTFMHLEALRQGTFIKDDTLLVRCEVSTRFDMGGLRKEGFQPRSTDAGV",
  "test": "co-IP; endogenous TRAF6 immunoprecipitated with anti-TRAF6(D-10) agarose overnight at 4 °C from lysates of mouse SMCs transduced with HA-USP20, serum starved 1 h and stimulated with IL-1β (1 ng/ml, 20 min); lysis buffer 50 mM Hepes pH 7.5, 2 mM EDTA, 250 mM NaCl, 10% glycerol, 0.5% Nonidet P-40; immunoblot for HA",
  "settings": "partners not purified",
  "data": [
    {"binder": "B1", "values": [
      {"measurement": "fold of USP20-WT in TRAF6 immunoprecipitates", "value": "~2.2", "unit": "fold"}
    ]}
  ]
}
